Reference: patent US20110301073

What was measured:
[1] = test system: nR23570S-dNC (17.5 repeats without N- and C-caps) (Xanthomonas sp. (engineered)); assay: cell_activity; settings: mock 1.48; caps deleted
[2] = test system: R0-VP16 (no tandem repeats) (Xanthomonas sp. (engineered)); assay: cell_activity; settings: no tandem repeats
[3] = test system: TALEN 101139 (synthetic (Xanthomonas TALE)); assay: cell_activity; settings: paired with 101141
[4] = test system: TALE13 C+17 FokI (Xanthomonas axonopodis); assay: cleavage_in_vitro; settings: two sites, 12 bp spacer
[5] = test system: TALE13 C-2 FokI (Xanthomonas axonopodis); assay: cleavage_in_vitro; settings: two sites, 12 bp spacer
[6] = test system: TALE13 C+5 FokI (Xanthomonas axonopodis); assay: cleavage_in_vitro; settings: two sites, 12 bp spacer
[7] = test system: TALE13 C+11 FokI (Xanthomonas axonopodis); assay: cleavage_in_vitro; settings: two sites, 12 bp spacer
[8] = test system: TALEN 101141 (HD half repeat) (synthetic (Xanthomonas TALE)); assay: cell_activity; settings: paired with 101139
[9] = test system: TALE test backbone, repeat 5 RVD KI (Xanthomonas sp. (engineered)); settings: RVD KI
[10] = test system: TALE test backbone, repeat 5 RVD NN (Xanthomonas sp. (engineered)); settings: RVD NN
[11] = test system: TALE test backbone, repeat 5 RVD AA (synthetic (Xanthomonas TALE)); settings: ELISA
[12] = test system: TALE test backbone, repeat 5 RVD NS (synthetic (Xanthomonas TALE)); settings: ELISA
[13] = test system: TALE test backbone, repeat 5 RVD DK (synthetic (Xanthomonas TALE)); settings: ELISA
[14] = test system: TALE test backbone, repeat 5 RVD QA (synthetic (Xanthomonas TALE)); settings: ELISA
[15] = test system: TALE test backbone, repeat 5 RVD LA (synthetic (Xanthomonas TALE)); settings: ELISA
[16] = test system: TALE test backbone, repeat 5 RVD AT (synthetic (Xanthomonas TALE)); settings: ELISA
[17] = test system: TALE test backbone, repeat 5 RVD KG (synthetic (Xanthomonas TALE)); settings: ELISA
[18] = test system: TALE test backbone, repeat 5 RVD KD (synthetic (Xanthomonas TALE)); settings: ELISA
[19] = test system: TALE test backbone, repeat 5 RVD HG (synthetic (Xanthomonas TALE)); settings: ELISA
[20] = test system: TALE test backbone, repeat 5 RVD HA (synthetic (Xanthomonas TALE)); settings: ELISA
[21] = test system: TALE test backbone, repeat 5 RVD QG (synthetic (Xanthomonas TALE)); settings: ELISA
[22] = test system: TALE test backbone, repeat 5 RVD AE (synthetic (Xanthomonas TALE)); settings: ELISA
[23] = test system: TALE test backbone, repeat 5 RVD ND (synthetic (Xanthomonas TALE)); settings: ELISA
[24] = test system: TALE test backbone, repeat 5 RVD KT (synthetic (Xanthomonas TALE)); settings: ELISA
[25] = test system: TALE test backbone, repeat 5 RVD IA (synthetic (Xanthomonas TALE)); settings: ELISA
[26] = test system: TALE test backbone, repeat 5 RVD SG (synthetic (Xanthomonas TALE)); settings: ELISA
[27] = test system: TALE test backbone, repeat 5 RVD RG (synthetic (Xanthomonas TALE)); settings: ELISA
[28] = test system: TALE test backbone, repeat 5 RVD IG (synthetic (Xanthomonas TALE)); settings: ELISA
[29] = test system: TALE test backbone, repeat 5 RVD AD (synthetic (Xanthomonas TALE)); settings: ELISA
[30] = test system: TALE test backbone, repeat 5 RVD KS (synthetic (Xanthomonas TALE)); settings: ELISA
[31] = test system: TALE test backbone, repeat 5 RVD HD, standard framework (SEQ 333) (Xanthomonas sp. (engineered)); settings: RVD HD
[32] = test system: TALE test backbone, repeat 5 RVD NA (synthetic (Xanthomonas TALE)); settings: ELISA
[33] = test system: TALE test backbone, repeat 5 RVD HI (Xanthomonas sp. (engineered)); settings: RVD HI
[34] = test system: TALE test backbone, repeat 5 RVD TA (synthetic (Xanthomonas TALE)); settings: ELISA
[35] = test system: TALE test backbone, repeat 5 RVD IP (synthetic (Xanthomonas TALE)); settings: ELISA
[36] = test system: TALE test backbone, repeat 5 RVD YG (synthetic (Xanthomonas TALE)); settings: ELISA
[37] = test system: TALE test backbone, repeat 5 RVD HN (synthetic (Xanthomonas TALE)); settings: ELISA
[38] = test system: TALE test backbone, repeat 5 RVD GG (synthetic (Xanthomonas TALE)); settings: ELISA
[39] = test system: TALE test backbone, repeat 5 RVD NG (Xanthomonas sp. (engineered)); settings: RVD NG
[40] = test system: TALE test backbone, repeat 5 RVD DH (synthetic (Xanthomonas TALE)); settings: ELISA
[41] = test system: TALE test backbone, repeat 5 RVD PW (Xanthomonas sp. (engineered)); settings: RVD PW; 0.00 on all four bases
[42] = test system: TALE test backbone, repeat 5 RVD RI (synthetic (Xanthomonas TALE)); settings: ELISA
[43] = test system: TALE test backbone, repeat 5 RVD NI (Xanthomonas sp. (engineered)); settings: RVD NI
[44] = test system: TALE test backbone, repeat 5 RVD TP (synthetic (Xanthomonas TALE)); settings: ELISA
[45] = test system: TALE test backbone, repeat 5 RVD VG (synthetic (Xanthomonas TALE)); settings: ELISA
[46] = test system: TALE test backbone, repeat 5 RVD RA (synthetic (Xanthomonas TALE)); settings: ELISA
[47] = test system: TALE test backbone, repeat 5 RVD SN (synthetic (Xanthomonas TALE)); settings: ELISA
[48] = test system: TALE test backbone, repeat 5 RVD AN (synthetic (Xanthomonas TALE)); settings: ELISA
[49] = test system: TALE test backbone, repeat 5 RVD KN (Xanthomonas sp. (engineered)); settings: RVD KN
[50] = test system: TALE test backbone, repeat 5 RVD NK (Xanthomonas sp. (engineered)); settings: RVD NK; other bases 0.00
[51] = test system: TALE test backbone, repeat 5 RVD KI (synthetic (Xanthomonas TALE)); settings: ELISA
[52] = test system: TALE test backbone, repeat 5 RVD AK (Xanthomonas sp. (engineered)); settings: RVD AK; other bases 0.00-0.01
[53] = test system: TALE test backbone, repeat 5 RVD SN (Xanthomonas sp. (engineered)); settings: RVD SN
[54] = test system: TALE test backbone, repeat 5 RVD HI (synthetic (Xanthomonas TALE)); settings: ELISA
[55] = test system: TALE test backbone, repeat 5 RVD DH (Xanthomonas sp. (engineered)); settings: RVD DH
[56] = test system: TALE test backbone, repeat 5 RVD VG (Xanthomonas sp. (engineered)); settings: RVD VG
[57] = test system: TALE test backbone, repeat 5 RVD IA (Xanthomonas sp. (engineered)); settings: RVD IA
[58] = test system: TALE test backbone, repeat 5 RVD TP (Xanthomonas sp. (engineered)); settings: RVD TP

GGAGCCATCTGGCCGGGT (double strand) [NT-L target (NTF3 promoter)]
activity (fold activation) [1]: 1.96 | activity (fold activation) [2]: 1

GGGCTCTCCCATGCAT (double strand) [101139 site]
activity [3]: 6.7 % NHEJ

TATAAATACCTTCT (double strand) [TALE13 target]
activity [4]: 97.8 % cleavage | activity [5]: 1.1 % cleavage | activity [6]: 99.3 % cleavage | activity [7]: 98.5 % cleavage

TCCTAGAAGGGCAGGC (double strand) [101141 site]
activity [8]: 6.7 % NHEJ

TTGACAATCCT (double strand) [CAA target]
binding signal (normalized ELISA) [9]: 0.75 | binding signal (normalized ELISA) [10]: 0.47 | binding signal (normalized ELISA) [11]: 0.34 | binding signal (normalized ELISA) [12]: 0.51 | binding signal (normalized ELISA) [13]: 0 | binding signal (normalized ELISA) [14]: 0.2 | binding signal (normalized ELISA) [15]: 0.02 | binding signal (normalized ELISA) [16]: 1.29 | binding signal (normalized ELISA) [17]: 0.47 | binding signal (normalized ELISA) [18]: 0.06 | binding signal (normalized ELISA) [19]: 0.38 | binding signal (normalized ELISA) [20]: 0.46 | binding signal (normalized ELISA) [21]: 0.21 | binding signal (normalized ELISA) [22]: 0 | binding signal (normalized ELISA) [23]: 0.06 | binding signal (normalized ELISA) [24]: 1 | binding signal (normalized ELISA) [25]: 0.15 | binding signal (normalized ELISA) [26]: 0.36 | binding signal (normalized ELISA) [27]: 0.32 | binding signal (normalized ELISA) [28]: 0.04 | binding signal (normalized ELISA) [29]: 0.02 | binding signal (normalized ELISA) [30]: 0.95 | binding signal (normalized ELISA) [31]: 0.15 | binding signal (normalized ELISA) [32]: 0.59 | binding signal (normalized ELISA) [33]: 0.67 | binding signal (normalized ELISA) [34]: 0.15 | binding signal (normalized ELISA) [35]: 0.04 | binding signal (normalized ELISA) [36]: 0.12 | binding signal (normalized ELISA) [37]: 0.5 | binding signal (normalized ELISA) [38]: 0.49 | binding signal (normalized ELISA) [39]: 0.48 | binding signal (normalized ELISA) [40]: 0.01 | binding signal (normalized ELISA) [41]: 0 | binding signal (normalized ELISA) [42]: 0.65 | binding signal (normalized ELISA) [43]: 0.6 | binding signal (normalized ELISA) [44]: 0.16 | binding signal (normalized ELISA) [45]: 0.05 | binding signal (normalized ELISA) [46]: 0.73 | binding signal (normalized ELISA) [47]: 0.43 | binding signal (normalized ELISA) [48]: 0.51

TTGACGATCCT (double strand) [CGA target]
binding signal (normalized ELISA) [10]: 0.81 | binding signal (normalized ELISA) [11]: 0.06 | binding signal (normalized ELISA) [12]: 0.71 | binding signal (normalized ELISA) [13]: 0.15 | binding signal (normalized ELISA) [14]: 0.03 | binding signal (normalized ELISA) [15]: 0 | binding signal (normalized ELISA) [16]: 0.76 | binding signal (normalized ELISA) [17]: 0.2 | binding signal (normalized ELISA) [18]: 0 | binding signal (normalized ELISA) [49]: 1 | binding signal (normalized ELISA) [19]: 0.11 | binding signal (normalized ELISA) [50]: 0.15 | binding signal (normalized ELISA) [20]: 0.24 | binding signal (normalized ELISA) [21]: 0.05 | binding signal (normalized ELISA) [51]: 0.02 | binding signal (normalized ELISA) [22]: 0 | binding signal (normalized ELISA) [52]: 0.21 | binding signal (normalized ELISA) [23]: 0 | binding signal (normalized ELISA) [53]: 0.92 | binding signal (normalized ELISA) [24]: 0.83 | binding signal (normalized ELISA) [25]: 0.02 | binding signal (normalized ELISA) [26]: 0.2 | binding signal (normalized ELISA) [27]: 0.12 | binding signal (normalized ELISA) [54]: 0.04 | binding signal (normalized ELISA) [28]: 0.01 | binding signal (normalized ELISA) [29]: 0 | binding signal (normalized ELISA) [30]: 0.74 | binding signal (normalized ELISA) [31]: 0 | binding signal (normalized ELISA) [32]: 0.41 | binding signal (normalized ELISA) [34]: 0.01 | binding signal (normalized ELISA) [35]: 0 | binding signal (normalized ELISA) [36]: 0.01 | binding signal (normalized ELISA) [37]: 0.86 | binding signal (normalized ELISA) [38]: 0.25 | binding signal (normalized ELISA) [55]: 0.36 | binding signal (normalized ELISA) [42]: 0.02 | binding signal (normalized ELISA) [43]: 0.02 | binding signal (normalized ELISA) [44]: 0.01 | binding signal (normalized ELISA) [45]: 0.01 | binding signal (normalized ELISA) [46]: 0.53 | binding signal (normalized ELISA) [48]: 0.87

TTGACTATCCT (double strand) [CTA target]
binding signal (normalized ELISA) [11]: 0.61 | binding signal (normalized ELISA) [12]: 0.54 | binding signal (normalized ELISA) [13]: 0 | binding signal (normalized ELISA) [14]: 1.24 | binding signal (normalized ELISA) [15]: 0.51 | binding signal (normalized ELISA) [16]: 0.56 | binding signal (normalized ELISA) [17]: 1.29 | binding signal (normalized ELISA) [18]: 0.05 | binding signal (normalized ELISA) [19]: 1.49 | binding signal (normalized ELISA) [20]: 1.54 | binding signal (normalized ELISA) [21]: 1.09 | binding signal (normalized ELISA) [51]: 0.04 | binding signal (normalized ELISA) [22]: 0 | binding signal (normalized ELISA) [23]: 0.02 | binding signal (normalized ELISA) [24]: 0.67 | binding signal (normalized ELISA) [26]: 1.23 | binding signal (normalized ELISA) [56]: 0.56 | binding signal (normalized ELISA) [27]: 0.87 | binding signal (normalized ELISA) [54]: 0.04 | binding signal (normalized ELISA) [28]: 0.68 | binding signal (normalized ELISA) [29]: 0.01 | binding signal (normalized ELISA) [30]: 0.81 | binding signal (normalized ELISA) [31]: 0.09 | binding signal (normalized ELISA) [32]: 1.72 | binding signal (normalized ELISA) [34]: 0.76 | binding signal (normalized ELISA) [35]: 0.84 | binding signal (normalized ELISA) [57]: 1.2 | binding signal (normalized ELISA) [36]: 0.79 | binding signal (normalized ELISA) [37]: 0.01 | binding signal (normalized ELISA) [38]: 1.52 | binding signal (normalized ELISA) [39]: 1.3 | binding signal (normalized ELISA) [40]: 0.03 | binding signal (normalized ELISA) [42]: 0.02 | binding signal (normalized ELISA) [43]: 0.02 | binding signal (normalized ELISA) [46]: 1.64 | binding signal (normalized ELISA) [58]: 1.2 | binding signal (normalized ELISA) [47]: 0.02 | binding signal (normalized ELISA) [48]: 0.01
